B1: EsaDEG complex (complex)
chain 1: MTKDIEYLTADYDNEKSSIQSVIDAIEGQDFLDVDTTMDDAVSDVSSLDEDGAISLTSSVVGPQGSKLMGYYQNELYDYASQLDSKMKEIIDTPFIEDIDKAFKGITNVKLENILIKNGGGHGRDTYGASGKIAKGDAKKSDSDVYSIDEILKSDQEFVKVIDQHYKEMKKEDKKLSKSDFEKMMTQGASCDYMTVAEAEELEEQKKKEEAIEIAALAGMVVLSCINPVAGAVAIGAYSAYSAANAATGKNIVTGRKLSKEERIMEGLSLIPLPGMGFLKGAGKSLMKLGFKGGEKFAVKTGLQKTMQQAVSRISPKMGMMKNSVLNQSRNFAQNTHVGQMLSNMRGQATHTVQQSRNWIGQQAQNVKRIVNNGLDKEIAHPFKQQLAPAGMGGIKFAETTTLRNMGQNIKRAVTPQNHVTHGPKDSMVRSEGKHSISSHEMNSSKYVESPNYTKVEFGEHYARLRPKKLKANIEYTTPTGHIYRTDHKGRIKEVYVDNLSLKDGDRNSHAQRTVGGEDRLPDDDGGALIARMFGGSKDIDNLVAQSKFINRPFKEKGHWYNLEKEWQEFLNSGKEVKNIKMEVKYSGNSQRPTIFKVEYEINGERNIRRILNK
chain 2: MKDVKRIDYFSYEELTILGGSKLPLVNFELFDPSNFEEAKAALIEKELVTENDKLTDAGFKVATLVREYISAIVNIRINDMYFAPFSYEKDEYILLSRFKNNGFQIRIINKDIAWWSIVQSYPLLMRQEKSNDWDFKQIDDETLENLNNESIDTIGRVLEIEIYNHQGDPQQSLYNIYEQNDLLFIRYPLKDKVLNVHIGVINTFIRELFGFDTDENHINKAEE
chain 3: MTFEEKLSKIYNEIANEISSMIPVEWEKVYTMAYIDDGGGEVFFNYTKPGSDDLNYYTNIPKEYNISVQVFDDLWMDLYDLFEELRDLFKEEDLEPWTSCEFDFTREGELKVSFDYIDWINSEFGQIGRQNYYKYRKFGILPETEYEINKVKEIEQYIKELEE
notes: EsaD nuclease toxin of S. aureus, as m1; EsaE of S. aureus, as m2; EsaG of S. aureus, as m3; Cross-linked with glutaraldehyde for the experiment on dimers-of-trimers and for cryo-EM; also called EsaDEG trimer; not shown: His6, C-terminal, kept; copies: + +
B2: EsaDEG-EsxBCD complex (complex)
chain 1: MTKDIEYLTADYDNEKSSIQSVIDAIEGQDFLDVDTTMDDAVSDVSSLDEDGAISLTSSVVGPQGSKLMGYYQNELYDYASQLDSKMKEIIDTPFIEDIDKAFKGITNVKLENILIKNGGGHGRDTYGASGKIAKGDAKKSDSDVYSIDEILKSDQEFVKVIDQHYKEMKKEDKKLSKSDFEKMMTQGASCDYMTVAEAEELEEQKKKEEAIEIAALAGMVVLSCINPVAGAVAIGAYSAYSAANAATGKNIVTGRKLSKEERIMEGLSLIPLPGMGFLKGAGKSLMKLGFKGGEKFAVKTGLQKTMQQAVSRISPKMGMMKNSVLNQSRNFAQNTHVGQMLSNMRGQATHTVQQSRNWIGQQAQNVKRIVNNGLDKEIAHPFKQQLAPAGMGGIKFAETTTLRNMGQNIKRAVTPQNHVTHGPKDSMVRSEGKHSISSHEMNSSKYVESPNYTKVEFGEHYARLRPKKLKANIEYTTPTGHIYRTDHKGRIKEVYVDNLSLKDGDRNSHAQRTVGGEDRLPDDDGGALIARMFGGSKDIDNLVAQSKFINRPFKEKGHWYNLEKEWQEFLNSGKEVKNIKMEVKYSGNSQRPTIFKVEYEINGERNIRRILNK
chain 2: MKDVKRIDYFSYEELTILGGSKLPLVNFELFDPSNFEEAKAALIEKELVTENDKLTDAGFKVATLVREYISAIVNIRINDMYFAPFSYEKDEYILLSRFKNNGFQIRIINKDIAWWSIVQSYPLLMRQEKSNDWDFKQIDDETLENLNNESIDTIGRVLEIEIYNHQGDPQQSLYNIYEQNDLLFIRYPLKDKVLNVHIGVINTFIRELFGFDTDENHINKAEE
chain 3: MTFEEKLSKIYNEIANEISSMIPVEWEKVYTMAYIDDGGGEVFFNYTKPGSDDLNYYTNIPKEYNISVQVFDDLWMDLYDLFEELRDLFKEEDLEPWTSCEFDFTREGELKVSFDYIDWINSEFGQIGRQNYYKYRKFGILPETEYEINKVKEIEQYIKELEE
chain 4: MGGYKGIKADGGKVDQAKQLAAKTAKDIEACQKQTQQLAEYIEGSDWEGQFANKVKDVLLIMAKFQEELVQPMADHQKAIDNLSQNLAKYDTLSIKQGLDRVNP
chain 5: MNFNDIETMVKSKFKDIKKHAEEIAHEIEVRSGYLRKAEQYKRLEFNLSFALDDIESTAKDVQTAKSSANKDSVTVKGKAPNTLYIEKRNLMKQKLEMLGEDIDKNKESLQKAKEIAGEKASEYFNKAMN
chain 6: MTLSGKISVKAETIAHVVKELESISQKYDEIAQNFGKIAQLNYYSSEKAAHSMENGYSSAATVISGLKGPLSTLGGGVMNSAQKFFEADEHWGTEFAKLYYNIEG
notes: EsaD nuclease toxin of S. aureus, as m1; EsaE of S. aureus, as m2; EsaG of S. aureus, as m3; EsxB of S. aureus, as m4; EsxC of S. aureus, as m5; EsxD of S. aureus, as m6; Cross-linked with glutaraldehyde for the experiment on dimers-of-hexamers and for cryo-EM; also called EsaDEG-EsxBCD hexamer; EsxBCD-EsaDEG complex; not shown: His6, C-terminal, kept; twin-strep, C-terminal, kept; copies: + + + …

Target: the molecule itself
Test: cross-linking; purified complex from the major SEC peak at 0.5 mg/ml in 50 mM HEPES pH 7.5, 150 mM NaCl, 0.1% glutaraldehyde for 30 minutes at room temperature, quenched with tris; SEC and SDS-PAGE

Protein | stoichiometry N
B1 | 2
B2 | 2

— paper doi:10.1101/2023.04.01.535202, “Three small partner proteins facilitate the type VII-dependent secretion export of an antibacterial nuclease” (bioRxiv, 2023)
